Data on one substance can be found in article PMC9515186.

This test has as its target transferrin receptor 1 (mouse (endogenous in 4T1)) (UniProt Q62351).
Chain of UniProt Q62351 (Q62351 whole entry): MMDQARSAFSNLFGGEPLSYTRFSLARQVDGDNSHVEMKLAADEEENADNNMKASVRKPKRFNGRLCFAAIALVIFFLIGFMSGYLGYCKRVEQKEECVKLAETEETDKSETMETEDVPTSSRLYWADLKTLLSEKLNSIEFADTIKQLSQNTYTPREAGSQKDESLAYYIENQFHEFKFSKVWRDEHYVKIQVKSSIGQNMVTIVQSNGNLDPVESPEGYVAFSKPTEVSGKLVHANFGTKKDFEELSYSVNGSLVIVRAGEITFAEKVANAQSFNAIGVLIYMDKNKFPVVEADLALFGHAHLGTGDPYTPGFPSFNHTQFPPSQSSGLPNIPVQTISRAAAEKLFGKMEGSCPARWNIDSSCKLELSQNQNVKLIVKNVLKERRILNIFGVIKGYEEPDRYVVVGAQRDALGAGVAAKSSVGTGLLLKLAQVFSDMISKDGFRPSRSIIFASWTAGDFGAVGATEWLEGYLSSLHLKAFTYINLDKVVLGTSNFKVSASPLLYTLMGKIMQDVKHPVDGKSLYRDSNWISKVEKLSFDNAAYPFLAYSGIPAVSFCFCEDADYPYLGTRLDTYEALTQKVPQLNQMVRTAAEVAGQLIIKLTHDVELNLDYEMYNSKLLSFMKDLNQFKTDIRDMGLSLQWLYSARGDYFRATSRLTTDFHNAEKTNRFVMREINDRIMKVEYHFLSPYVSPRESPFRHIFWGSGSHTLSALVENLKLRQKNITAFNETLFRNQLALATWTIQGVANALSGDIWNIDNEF

Consider “ferritin (FITC-labelled, β-lapachone-loaded ferritin units, Ft-FITC@Lap) (from UniProt Q8MIP0 1-182; P02791 1-175) (natural protein)”, for which the decrease in FITC fluorescence accumulation (uptake, flow cytometry) in BSA-Man-Ft-FITC@Lap-treated 4T1 cells under pH 6.5 after pre-treatment with TfR1 antibody was found to be 67% and the mean fluorescence intensity of FITC in 4T1 cells (CLSM) treated with BSA-Man@Mn2+-Ft-FITC@Lap, pH 6.5 group against pH 7.4 group came to 3 fold.
